Where a chain is given by its changes, count along the chain named. Names may count otherwise.
T1: human 1-27 CD3ε-EpCAM (human)
T1 construct: also called 1-27 CD3-EpCAM comprising the human 27 mer
T1 chain: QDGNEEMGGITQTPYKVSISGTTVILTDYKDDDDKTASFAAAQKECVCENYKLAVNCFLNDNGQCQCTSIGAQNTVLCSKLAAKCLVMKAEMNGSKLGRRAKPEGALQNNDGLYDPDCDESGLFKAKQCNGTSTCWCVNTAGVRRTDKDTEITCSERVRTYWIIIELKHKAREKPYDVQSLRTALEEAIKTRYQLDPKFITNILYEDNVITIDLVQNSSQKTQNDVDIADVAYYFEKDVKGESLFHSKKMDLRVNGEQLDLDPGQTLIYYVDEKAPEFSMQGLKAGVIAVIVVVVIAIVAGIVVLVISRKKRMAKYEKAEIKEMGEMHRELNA

T2: swine 1-27 CD3ε-EpCAM (Sus scrofa)
T2 construct: negative control; also called 1-27 CD3-EpCAM comprising the swine 27 mer
T2 chain: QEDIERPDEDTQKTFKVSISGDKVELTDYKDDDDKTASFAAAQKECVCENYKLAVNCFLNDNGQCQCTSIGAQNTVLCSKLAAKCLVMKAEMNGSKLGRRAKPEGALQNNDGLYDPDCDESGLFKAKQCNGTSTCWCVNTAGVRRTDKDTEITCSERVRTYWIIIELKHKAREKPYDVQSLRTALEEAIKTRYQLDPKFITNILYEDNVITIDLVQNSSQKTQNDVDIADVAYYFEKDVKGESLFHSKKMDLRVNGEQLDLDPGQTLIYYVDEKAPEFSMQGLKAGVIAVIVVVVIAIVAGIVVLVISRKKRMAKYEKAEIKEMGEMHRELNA

T3: marmoset 1-27 CD3ε-EpCAM (Callithrix jacchus)
T3 construct: also called 1-27 CD3-EpCAM comprising the marmoset 27 mer
T3 chain: T1 chain with G9D, I10T, T13N, I25T

T4: tamarin 1-27 CD3ε-EpCAM (Saguinus oedipus)
T4 construct: also called 1-27 CD3-EpCAM comprising the tamarin 27 mer
T4 chain: T1 chain with G9D, I10T, T13N, I25T

T5: squirrel monkey 1-27 CD3ε-EpCAM (Saimiri sciureus)
T5 construct: also called 1-27 CD3-EpCAM comprising the squirrel monkey 27 mer
T5 chain: T1 chain with M7I, G9D, I10T, T13N, I25T

B1: A2J HLP (scFv)
scFv: EVQLLESGGGLVQPGGSLKLSCAASGFTFNVYAMNWVRQAPGKGLEWVARIRSKYNNYATYYADSVKKRFTISRDDSKNTAYLQMNNLKTEDTAVYYCVRHGNFGNSYLSWWAYWGQGTLVTVSSGGGGSGGGGSGGGGSELVVTQEPSLTVSPGGTVTLTCRSSTGAVTSGYYPNWVQQKPGQAPRGLIGATDMRPSGTPARFSGSLLGGKAALTLSGVQPEDEAEYYCALWYSNRWVFGGGTKLTVL
notes: crude periplasmic preparation; also called VH-VL-P of A2J
B2: E2M HLP (scFv)
scFv: B1 scFv with V31G, K68E, G102R, W112F
notes: crude periplasmic preparation; also called VH-VL-P of E2M
B3: scFv MP 9076-A9 (scFv)
scFv: QVQLVESGGGLVKPGGSLRLSCAASGFTFSDYYMYWVRQAPGKGLEWVAIISDGGYYTYYSDIIKGRFTISRDNAKNNLYLQMNSLRAEDTAVYYCARGFPLLRHGAMDYWGQGTLVTVSSGGGGSGGGGSGGGGSDIQMTQSPSSLSASVGDRVTITCKASQNVDTNVAWYQQKPGQAPKSLIYSASYRYSDVPSRFSGSASGTDFTLTISSVQSEDFATYYCQQYDSYPYTFGGGTKLEIK
notes: crude periplasmic extract from E. coli, His-tagged (His detection); also called PM76A9-HL
B4: scFv MP 9076-B10 (scFv)
scFv: B3 scFv with G16E, N78S, R87K
notes: crude periplasmic extract from E. coli, His-tagged; 610 read as B10; also called MP 9076-610; MP9076-610 (so in the source)
B5: scFv F1-A10 (scFv)
scFv: EVQLLESGGGLVQPGGSLRLSCAASGFTFSDFFMAWVRQAPGRGLEWVSTIVSDGGSTYYRDSVKGRFTISRDNSKNTLYLQMNSLRAEDTAVYYCARRGNSGYYVMDAWGQGTTVTVSSGGGGSGGGGSGGGGSDIQMTQSPSTLSASVGDRVTITCRASSSVTYMHWYQQKPGKAPKLLIYDTSKVASGVPSRFSGSGSGTEFTLTISSLQPDDFATYYCQQWSRNSPYTFGQGTKLEIK
notes: crude periplasmic extract from E. coli, His-tagged; also called PM F1-A10 HL

Columns and labels:
1-27 CD3-Fc = target: T6, 1-27 CD3-Fc (human); test: ELISA, periplasmic scFv on captured 1-27 CD3-Fc
T6 construct: assigned to this molecule; also called 1-27 CD3ε-Fc; 27 aa huCD3E

human 1-27 CD3ε-EpCAM = target: T1, human 1-27 CD3ε-EpCAM; test: FACS, 293-HEK transfectants
swine 1-27 CD3ε-EpCAM = target: T2, swine 1-27 CD3ε-EpCAM; test: FACS, 293-HEK transfectants
marmoset 1-27 CD3ε-EpCAM = target: T3, marmoset 1-27 CD3ε-EpCAM; test: FACS, 293-HEK transfectants
tamarin 1-27 CD3ε-EpCAM = target: T4, tamarin 1-27 CD3ε-EpCAM; test: FACS, 293-HEK transfectants
[1] = target: T5, squirrel monkey 1-27 CD3ε-EpCAM; test: FACS, 293-HEK transfectants
human PSMA = target: T7, human PSMA (human, UniProt Q04609 1-750); test: Pepscan ELISA, 15-mer peptides of the extracellular domain of human PSMA
T7 construct: whole, on cells; also called prostate-specific membrane antigen
T7 sequence (Q04609 whole entry, the tested form may be a part): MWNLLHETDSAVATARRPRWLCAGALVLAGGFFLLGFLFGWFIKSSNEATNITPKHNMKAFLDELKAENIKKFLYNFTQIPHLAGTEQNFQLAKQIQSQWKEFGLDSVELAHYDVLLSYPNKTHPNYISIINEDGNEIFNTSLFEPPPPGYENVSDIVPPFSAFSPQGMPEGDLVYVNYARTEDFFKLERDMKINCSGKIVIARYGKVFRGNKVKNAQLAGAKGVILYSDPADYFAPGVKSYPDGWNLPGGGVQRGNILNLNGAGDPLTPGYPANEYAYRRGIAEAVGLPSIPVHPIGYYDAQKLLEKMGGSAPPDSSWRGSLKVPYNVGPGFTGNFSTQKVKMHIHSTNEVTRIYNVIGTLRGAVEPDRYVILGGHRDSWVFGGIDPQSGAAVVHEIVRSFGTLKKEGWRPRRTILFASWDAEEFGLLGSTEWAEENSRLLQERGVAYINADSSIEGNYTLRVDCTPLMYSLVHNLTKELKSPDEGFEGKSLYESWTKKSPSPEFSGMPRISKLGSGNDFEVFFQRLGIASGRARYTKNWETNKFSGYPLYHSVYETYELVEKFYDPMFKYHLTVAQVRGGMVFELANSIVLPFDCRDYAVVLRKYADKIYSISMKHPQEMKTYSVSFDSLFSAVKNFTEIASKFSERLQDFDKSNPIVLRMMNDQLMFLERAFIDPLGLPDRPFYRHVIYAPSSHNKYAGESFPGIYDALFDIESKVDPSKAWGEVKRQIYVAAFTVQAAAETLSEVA
Protocol: These three PSMA BiTE antibodies were subjected to an alternative epitope mapping approach based on peptide scanning (Pepscan). Pepscan uses overlapping peptides of a given protein and analyses antibody binding to immobilized peptides by enzyme-linked immunosorbent assays (ELISAs). The epitope mapping experiments with PSMA BiTE antibodies were performed at the company Pepscan (Lelystad, The Netherlands).
These peptides were coated to ELISA wells in a 384-well plate format. […] To this end 7 ml of crude periplasmic extracts were shipped on dry ice to Pepscan (The Netherlands). Using scFv counterparts in this assay minimized the risk to pick up signals from the second non-PSMA binding specificity of the BiTE antibodies, which may lead to misinterpretation of the PSMA binding epitopes of the target binders. The scFvs were incubated with the peptides and specific binding detected using an anti-His antibody. Binding signals were measured in a 384-well ELISA reader.

| Binder | binding result (1-27 CD3-Fc) | binding result (human PSMA) | also measured |
| --- | --- | --- | --- |
| B1 | binds |  |  |
| B2 | binds |  | binding result (human 1-27 CD3ε-EpCAM): binds; binding result (swine 1-27 CD3ε-EpCAM): no binding; binding result (marmoset 1-27 CD3ε-EpCAM): binds; binding result (tamarin 1-27 CD3ε-EpCAM): binds; binding result [1]: binds |
| B3 |  | binds |  |
| B4 |  | binds |  |
| B5 |  | binds |  |

— patent US20190169310A1 (Amgen, published 2019)
